Drawing on paper PMC6736723, this text covers reduction in GAS (WT M41) adherence to CAF-derived matrices after 30 min pre-incubation of the cells with rTnFn6-8, against untreated WT and reduction in GAS (WT M41) adherence to CAF-derived matrices after 30 min pre-incubation of the cells with rTnFn1-5, against untreated WT for two substances.

For this assay, the target named is Scl1.41 on the surface of M41-type GAS cells (MGAS6183 wild type and Δscl1::scl1.41) (Streptococcus pyogenes (group A Streptococcus), M41-type strain MGAS6183).

For “recombinant tenascin-C fibronectin type III repeats 6-8 (rTnFn6-8) (domain or fragment)”, the reduction in GAS (WT M41) adherence to CAF-derived matrices after 30 min pre-incubation of the cells with rTnFn6-8, against untreated WT came out at 40%. For the substance “recombinant tenascin-C fibronectin type III repeats 1-5 (rTnFn1-5) (domain or fragment)”, the reduction in GAS (WT M41) adherence to CAF-derived matrices after 30 min pre-incubation of the cells with rTnFn1-5, against untreated WT amounted to 70%.
